Article PMC8881610

Molecular target: human GLP-1R, wild-type, on cells (human) (UniProt P43220)
Sequence (P43220 24-463): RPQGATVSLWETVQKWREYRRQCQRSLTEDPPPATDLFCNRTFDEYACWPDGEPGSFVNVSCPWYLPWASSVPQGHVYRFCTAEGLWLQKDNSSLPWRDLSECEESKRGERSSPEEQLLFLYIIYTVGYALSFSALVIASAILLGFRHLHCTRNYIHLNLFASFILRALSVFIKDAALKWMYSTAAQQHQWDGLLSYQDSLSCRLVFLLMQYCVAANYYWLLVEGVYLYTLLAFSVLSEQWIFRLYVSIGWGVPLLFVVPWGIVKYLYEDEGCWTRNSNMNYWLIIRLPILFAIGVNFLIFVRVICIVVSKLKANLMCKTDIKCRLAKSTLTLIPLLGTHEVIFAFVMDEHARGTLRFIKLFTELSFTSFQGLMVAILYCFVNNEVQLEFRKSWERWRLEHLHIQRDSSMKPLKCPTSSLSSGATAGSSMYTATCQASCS

cAMP response, EC50, 0.1% BSA [pM]	Substance	other [pM]
–	tirzepatide (peptide)	3.05
4.66	non-acylated tirzepatide (peptide)	0.9
